# Reference: US20260258084A1, “New Peptides as Selective IL-23 Receptor Antagonists” (Sanofi, priority 2022, published 2026)
# Starred links: 1 amine or outer side, 2 acyl side, 3 side chain; linkers in the order of their positions; H or OH if unused. Positions of bridges follow the written chain, without caps; N, C: chain ends. Non-standard residues stand in square brackets, D forms with d. No end group written: not given here. Yde = (2S)-2-amino-3-[4-[2-(dimethylamino)ethoxy]phenyl]propanoic acid, CN(C)CCOc1ccc(C[C@H](N[*:1])C(=O)[*:2])cc1; NdmK = (2S)-6-amino-2-(dimethylamino)hexanoic acid, CN(C)[C@@H](CCCCN[*:3])C(=O)[*:2]; Trp(7-Me) = Cc1cccc2c(C[C@H](N)C(=O)O)c[nH]c12; Tyr(Me) = COc1ccc(C[C@H](N[*:1])C(=O)[*:2])cc1; αMeLys(Me2) = CN(C)CCCC[C@](C)(N)C(=O)O; 2Nal = N[C@@H](Cc1ccc2ccccc2c1)C(=O)O; εLys = N[C@@H](CCCCN[*:1])C(=O)[*:2]; NMe5Ava = CN(CCCCC(=O)[*:2])[*:1]; 3Pal = N[C@@H](Cc1cccnc1)C(=O)O; αMeL = CC(C)C[C@](C)(N)C(=O)O; Thp = NC1(C(=O)O)CCOCC1; Aib = CC(C)(N)C(=O)O; Ava = NCCCCC(=O)O; Sar = CNCC(=O)O
# T1: IL-23 receptor on the surface of HEK-Blue IL-23 cells (UniProt Q5VWK5 24-629, limits assumed)
# T1 sequence (looked up): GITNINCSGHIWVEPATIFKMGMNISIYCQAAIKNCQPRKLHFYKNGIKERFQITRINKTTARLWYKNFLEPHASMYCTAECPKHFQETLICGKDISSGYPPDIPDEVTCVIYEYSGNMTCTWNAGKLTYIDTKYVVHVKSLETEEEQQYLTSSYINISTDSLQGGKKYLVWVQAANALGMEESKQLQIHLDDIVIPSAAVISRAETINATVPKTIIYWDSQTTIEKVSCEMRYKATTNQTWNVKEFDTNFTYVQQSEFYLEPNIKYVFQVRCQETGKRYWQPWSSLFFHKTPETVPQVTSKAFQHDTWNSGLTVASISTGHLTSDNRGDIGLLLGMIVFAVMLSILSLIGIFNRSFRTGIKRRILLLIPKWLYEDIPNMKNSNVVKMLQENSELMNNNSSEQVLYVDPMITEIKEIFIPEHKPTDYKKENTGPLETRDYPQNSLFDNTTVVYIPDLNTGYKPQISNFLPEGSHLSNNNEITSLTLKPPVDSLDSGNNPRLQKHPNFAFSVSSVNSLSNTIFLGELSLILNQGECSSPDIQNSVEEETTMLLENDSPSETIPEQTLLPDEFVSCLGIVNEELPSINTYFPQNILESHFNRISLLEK
# T2: recombinant human IL-23R-Fc chimera (human, UniProt Q5VWK5 24-353)
# T2 construct: used at 0.1 µg/ml in the ELISA; not shown: Fc part of the chimera; detected with goat anti-hu-IgG1-HRP a
# T2 sequence (looked up): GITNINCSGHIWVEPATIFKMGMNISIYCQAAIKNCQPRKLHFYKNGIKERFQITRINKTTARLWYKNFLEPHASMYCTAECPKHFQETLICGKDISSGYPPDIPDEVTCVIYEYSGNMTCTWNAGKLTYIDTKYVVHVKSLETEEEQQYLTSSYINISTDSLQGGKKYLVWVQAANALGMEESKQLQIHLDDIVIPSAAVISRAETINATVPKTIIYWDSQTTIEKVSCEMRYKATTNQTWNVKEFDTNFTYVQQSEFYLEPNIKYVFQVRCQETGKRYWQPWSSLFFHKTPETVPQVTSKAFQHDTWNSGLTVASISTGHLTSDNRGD
# How the values were obtained:
# [1] = target: T1, IL-23 receptor on the surface of …; experiment: cell-based or functional assay
# [2] = target: T2, recombinant human IL-23R-Fc chimera; experiment: competition ELISA: IL-23R-Fc binding to coated human IL23
# Experimental: Antagonism of compounds for human interleukin-23 receptor antagonists, was determined by an ELISA assay.
# A 384-well plate was coated with 50 μl/well of human IL23 at a final concentration of […] and incubated overnight at 4° C. The wells were washed 3 times with 80 μl wash buffer and blocked with 80 μl blocking buffer for 60 minutes at room temperature and washed again. 20 μl of serially diluted test peptides was added to each well and subsequently 20 μl of recombinant human IL-23R-Fc chimera at final concentration of 0.1 μg/ml. The plate was incubated for 60 minutes at room temperature. After the wells were washed, bound IL23R-Fc was detected with goat anti-hu-IgG1-HRP antibody. Signals were visualized with QuantaBlu Fluorogenic Peroxidase Substrate.
Binder,pSTAT3 (nM) [1] [nM],IC50 [2] [nM]
[Ava]CNT[Trp(7-Me)]K(Ac)C[Yde][2Nal][αMeL]EN[3Pal][Sar]-NH2 (lactam N-11; disulfide 2-7; SMILES CC(=O)NCCCC[C@@H]1NC(=O)[C@H](Cc2c[nH]c3c(C)cccc23)NC(=O)[C@H]([C@@H](C)O)NC(=O)[C@H](CC(N)=O)NC(=O)[C@@H]2CSSC[C@H](NC1=O)C(=O)N[C@@H](Cc1ccc(OCCN(C)C)cc1)C(=O)N[C@@H](Cc1ccc3ccccc3c1)C(=O)N[C@@](C)(CC(C)C)C(=O)N[C@H](C(=O)N[C@@H](CC(N)=O)C(=O)N[C@@H](Cc1cccnc1)C(=O)N(C)CC(N)=O)CCC(=O)NCCCCC(=O)N2) [Compound of SEQ ID NO: 65],0.23,0.37
[Ava]CNT[Trp(7-Me)]K(Ac)C[Yde][2Nal][Thp]EN[3Pal][Sar]-NH2 (lactam N-11; disulfide 2-7; SMILES CC(=O)NCCCC[C@@H]1NC(=O)[C@H](Cc2c[nH]c3c(C)cccc23)NC(=O)[C@H]([C@@H](C)O)NC(=O)[C@H](CC(N)=O)NC(=O)[C@@H]2CSSC[C@H](NC1=O)C(=O)N[C@@H](Cc1ccc(OCCN(C)C)cc1)C(=O)N[C@@H](Cc1ccc3ccccc3c1)C(=O)NC1(CCOCC1)C(=O)N[C@H](C(=O)N[C@@H](CC(N)=O)C(=O)N[C@@H](Cc1cccnc1)C(=O)N(C)CC(N)=O)CCC(=O)NCCCCC(=O)N2) [Compound of SEQ ID NO: 35],0.34,0.34
[NMe5Ava]C[NdmK][Trp(7-Me)]K(Ac)C[Yde][2Nal][αMeLys(Me2)]EN[3Pal][Sar]-NH2 (lactam N-10; disulfide 2-6) [Compound of SEQ ID NO: 61],4.4,0.36

# Continued by falling IC50 [2], values first:
pSTAT3 (nM) [1] [nM],IC50 [2] [nM],Binder
25,0.6,"K(Ac)CNTWQC[Tyr(Me)][2Nal][Aib]DNN-NH2 (lactam (positions not given here); disulfide 2-7; not fully specified (bridges); printed as K[Ac](§1)-C(@2)-N-T-W-Q-C(@2)-Yme-Nal-Aib-D(§1)-N—N—NH2; also: K1 acetylated, whether acetyl is on alpha-N or epsilon-N (lactam via the other amine) not settled, §1 lactam bridge; @2 disulfide bridge) [Compound of SEQ ID NO: 7]"
4.11,0.39,"[Ava]C[εLys](Ac)WQC[Yde][2Nal][αMeL]ENN-NH2 (lactam N-10; disulfide 2-6; also: Cys2 carboxyl bonded to Lys3 epsilon-NH2 (isopeptide), Lys3 alpha-N acetylated) [Compound of SEQ ID NO: 28]"
